From publication PMC4613515

Molecular target: His6–WT cyclin Y (Sf21) (human) (UniProt Q8ND76)
Test: co-purification on Ni-NTA–agarose, immunoblot; His6–cyclin Y (WT or S326A) expressed in Sf21 cells and affinity-purified; defined amounts immunoblotted for 14-3-3

Sequence of UniProt Q8ND76 (Q8ND76 whole entry): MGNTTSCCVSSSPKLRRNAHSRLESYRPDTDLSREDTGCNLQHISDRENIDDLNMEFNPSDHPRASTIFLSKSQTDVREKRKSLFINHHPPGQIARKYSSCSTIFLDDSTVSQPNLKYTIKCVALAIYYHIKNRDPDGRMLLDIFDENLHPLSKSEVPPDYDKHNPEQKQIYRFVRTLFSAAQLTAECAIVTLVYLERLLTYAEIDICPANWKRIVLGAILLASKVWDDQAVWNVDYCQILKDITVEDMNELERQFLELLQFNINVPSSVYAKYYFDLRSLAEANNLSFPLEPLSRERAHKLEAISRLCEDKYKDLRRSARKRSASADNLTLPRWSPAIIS

Work on “14-3-3 proteins (endogenous in Sf21 cells) (natural protein)” yielded an amount of co-purified 14-3-3 against that with COS-1-derived WT cyclin Y of 100 fold less.
